Drawing on patent US20100310509A1, this text covers concentration that suppresses A375 melanoma cell proliferation by ~50% and concentration that suppresses A375 melanoma cell proliferation by ~90% for one substance.

For this assay, the target named is OSMR:gp130 receptor complex on A375 melanoma cells (UniProt Q99650). The assay can be described thus: cell-based or functional assay.
Sequence of OSMR:gp130 receptor complex on A375 melanoma cells (Q99650 28-979 limits assumed, chain 1 of 2): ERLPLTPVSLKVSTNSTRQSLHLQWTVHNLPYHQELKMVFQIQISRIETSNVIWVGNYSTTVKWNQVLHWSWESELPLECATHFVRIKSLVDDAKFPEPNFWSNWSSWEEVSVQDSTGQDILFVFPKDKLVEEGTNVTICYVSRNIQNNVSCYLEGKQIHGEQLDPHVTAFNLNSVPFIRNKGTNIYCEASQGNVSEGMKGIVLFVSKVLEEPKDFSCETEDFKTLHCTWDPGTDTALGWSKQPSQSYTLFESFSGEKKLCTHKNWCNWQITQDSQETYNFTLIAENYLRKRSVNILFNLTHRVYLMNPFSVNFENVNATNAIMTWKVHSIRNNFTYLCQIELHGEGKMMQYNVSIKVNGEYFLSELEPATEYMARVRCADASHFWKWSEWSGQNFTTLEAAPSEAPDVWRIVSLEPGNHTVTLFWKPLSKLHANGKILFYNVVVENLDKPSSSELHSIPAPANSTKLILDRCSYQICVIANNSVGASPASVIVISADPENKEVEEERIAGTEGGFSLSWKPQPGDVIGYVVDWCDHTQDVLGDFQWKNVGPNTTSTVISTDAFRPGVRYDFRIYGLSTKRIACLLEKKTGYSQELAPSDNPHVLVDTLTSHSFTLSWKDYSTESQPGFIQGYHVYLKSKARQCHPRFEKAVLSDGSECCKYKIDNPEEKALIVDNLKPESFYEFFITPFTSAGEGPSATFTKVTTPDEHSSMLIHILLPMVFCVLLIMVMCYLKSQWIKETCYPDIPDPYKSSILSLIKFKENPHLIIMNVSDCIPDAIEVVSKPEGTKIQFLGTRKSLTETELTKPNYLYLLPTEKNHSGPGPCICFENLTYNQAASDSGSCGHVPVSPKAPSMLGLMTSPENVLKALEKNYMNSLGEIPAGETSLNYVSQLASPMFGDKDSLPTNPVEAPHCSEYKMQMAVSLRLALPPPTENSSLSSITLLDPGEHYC
Sequence of OSMR:gp130 receptor complex on A375 melanoma cells (P40189 23-918 limits assumed, chain 2 of 2, further chain): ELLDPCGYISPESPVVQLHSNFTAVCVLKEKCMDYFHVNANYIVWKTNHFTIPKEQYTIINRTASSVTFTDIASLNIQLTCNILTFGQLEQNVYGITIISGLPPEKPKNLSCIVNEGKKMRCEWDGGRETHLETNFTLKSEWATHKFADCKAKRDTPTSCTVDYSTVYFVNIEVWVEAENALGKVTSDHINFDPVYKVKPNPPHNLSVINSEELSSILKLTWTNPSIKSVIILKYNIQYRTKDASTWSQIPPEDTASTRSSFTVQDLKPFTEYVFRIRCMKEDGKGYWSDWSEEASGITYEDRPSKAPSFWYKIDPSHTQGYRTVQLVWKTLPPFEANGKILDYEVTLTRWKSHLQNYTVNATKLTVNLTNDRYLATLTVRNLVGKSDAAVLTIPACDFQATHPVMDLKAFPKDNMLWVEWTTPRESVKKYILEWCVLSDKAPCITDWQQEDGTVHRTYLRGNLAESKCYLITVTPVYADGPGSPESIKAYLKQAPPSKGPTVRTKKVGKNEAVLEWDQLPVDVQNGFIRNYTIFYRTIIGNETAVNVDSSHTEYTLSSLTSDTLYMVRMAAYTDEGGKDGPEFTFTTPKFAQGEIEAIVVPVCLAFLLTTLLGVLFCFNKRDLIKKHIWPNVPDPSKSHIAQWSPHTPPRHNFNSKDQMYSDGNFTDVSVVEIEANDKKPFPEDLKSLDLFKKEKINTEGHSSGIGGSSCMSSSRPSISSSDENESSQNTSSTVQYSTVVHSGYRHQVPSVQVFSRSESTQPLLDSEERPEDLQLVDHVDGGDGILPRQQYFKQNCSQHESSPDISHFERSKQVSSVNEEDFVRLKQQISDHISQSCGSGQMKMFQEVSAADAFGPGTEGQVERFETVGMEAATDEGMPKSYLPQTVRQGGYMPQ

Take “OSM-WT ('AGA' modified human Oncostatin M, referred to as wild-type OSM) (from UniProt P13725 26-217) (ligand)”: the concentration that suppresses A375 melanoma cell proliferation by ~50% is 20 ng/mL and the concentration that suppresses A375 melanoma cell proliferation by ~90% worked out at 50 ng/mL.
